Laboratory results published in patent US20250205190A1, “NUTRITIONAL COMPOSITION” (N.V. NUTRICIA, priority 2022, published 2025).

Tests used:
Test in all cases: i-screen in vitro colon microbiota model, fermentation of infant faecal pool, 16S rRNA sequencing
Assay type in all cases: cell-based
Settings in all cases: t = 24 hours anaerobic fermentation, SIEM medium, 37° C., triplicate, ingredient conc. per Table 1
[1] = tested on: Bacteroidaceae
Experimental: (§1) In an in vitro colon microbiota model, i-screen™ (TNO, Zeist, Netherlands), the effect of infant milk formula ingredients on the anaerobic fermentation of infant microbiota was assessed.
(§2) The in vitro microbiota model mimics colonic conditions. Before a consumed ingredient reaches the colon in a human, already a part of the digestion/absorption has taken place in the gastrointestinal tract preceding the colon. For each ingredient the degree of digestion/absorption before reaching the colon varies and this was taken into account when selecting the ingredient concentrations to be tested (see Table 1).
(§3) The infant faecal pool consisted of samples obtained from faeces of 5 European infants aged 3.5-8.5 months. The samples were thawed, homogenized, aliquoted and stored at −80° C. till the start of the i-screen assay run.
(§4) • Before starting the fermentation with the test ingredients. The infant fecal pool was incubated in an anaerobic flask for 4 hours in SIEM (simulated ileal environment media) medium (pH 5.8) under anaerobic conditions (37° C.; 300 rpm). Subsequently this SIEM medium with feces was homogenized and distributed into a 96 w-plate. • The test ingredients were pre-diluted in a higher concentration in fresh SIEM medium and added to the existing medium in the 96 wells plate. For milk fat the addition method was slightly adapted, milk fat was added to fresh SIEM medium at 45° C., subsequently thoroughly homogenized, followed by addition to the wells in the 96 w plate. • The i-screen experiment included an untreated control (microbiota only), an positive control (Inulin, Raftiline ST), blanks (SIEM medium only) and technical controls (internal controls for DNA isolation and sequencing). • Each test condition was conducted in triplicate. • After 24 hours of fermentation in SIEM medium under anaerobic conditions at 37° C., samples were collected for DNA analyses. […]
(§5) Changes in the microbiota composition were analyzed by using 16S rDNA amplicon sequencing. […] Amplicon quality and size were analyzed on a Fragment Analyzer (Advanced Analytical Technologies, Inc.). […]

[2] = tested on: Enterobacteriaceae
Experimental: as §1, §2, §3, §4, §5

[3] = tested on: Bifidobacteriaceae
Experimental: as §1, §2, §3, §4, §5

B1: Lactoferrin (protein, UniProt P24627 20-708, looked up)
Lactotransferrin: APRKNVRWCTISQPEWFKCRRWQWRMKKLGAPSITCVRRAFALECIRAIAEKKADAVTLDGGMVFEAGRDPYKLRPVAAEIYGTKESPQTHYYAVAVVKKGSNFQLDQLQGRKSCHTGLGRSAGWIIPMGILRPYLSWTESLEPLQGAVAKFFSASCVPCIDRQAYPNLCQLCKGEGENQCACSSREPYFGYSGAFKCLQDGAGDVAFVKETTVFENLPEKADRDQYELLCLNNSRAPVDAFKECHLAQVPSHAVVARSVDGKEDLIWKLLSKAQEKFGKNKSRSFQLFGSPPGQRDLLFKDSALGFLRIPSKVDSALYLGSRYLTTLKNLRETAEEVKARYTRVVWCAVGPEEQKKCQQWSQQSGQNVTCATASTTDDCIVLVLKGEADALNLDGGYIYTAGKCGLVPVLAENRKSSKHSSLDCVLRPTEGYLAVAVVKKANEGLTWNSLKDKKSCHTAVDRTAGWNIPMGLIVNQTGSCAFDEFFSQSCAPGADPKSRLCALCAGDDQGLDKCVPNSKEKYYGYTGAFRCLAEDVGDVAFVKNDTVWENTNGESTADWAKNLNREDFRLLCLDGTRKPVTEAQSCHLAVAPNHAVVSRSDRAAHVKQVLLHQQALFGKNGKNCPDKFCLFKSETKNLLFNDNTECLAKLGGRPTYEEYLGTEYVTAIANLKKCSTSPLLEACAFLTR
notes: Friesland Campina, Vivinal Lactoferrin, comprises 96 wt. % lactoferrin; 2 mg/ml in well
Question: Which “Average relative abundance (%) [st. dev] Bacteroidaceae” value [1] does the source give for B1 here?
Answer: The value was 19.81 (0.48) %.

Question: And the “Average relative abundance (%) [st. dev] Enterobacteriaceae” value [2]?
Answer: The value was 41.73 (1.64) %.

Question: What about the “Average relative abundance (%) [st. dev] Bifidobacteriaceae” value [3] of the same molecule?
Answer: Its value is 9.39 (1.50) %.
